Results from patent US20240084003A1 (SIMCERE ZAIMING PHARMACEUTICAL, published 2024).

T1: monkey CD22 protein (ACROBiosystems, catalog number SI2-R52Ha) (monkey, UniProt F6W485 20-688)
T1 construct: commercial protein; also called monkey CD22-ECD; monkey CD22-ECD-His
T1 sequence: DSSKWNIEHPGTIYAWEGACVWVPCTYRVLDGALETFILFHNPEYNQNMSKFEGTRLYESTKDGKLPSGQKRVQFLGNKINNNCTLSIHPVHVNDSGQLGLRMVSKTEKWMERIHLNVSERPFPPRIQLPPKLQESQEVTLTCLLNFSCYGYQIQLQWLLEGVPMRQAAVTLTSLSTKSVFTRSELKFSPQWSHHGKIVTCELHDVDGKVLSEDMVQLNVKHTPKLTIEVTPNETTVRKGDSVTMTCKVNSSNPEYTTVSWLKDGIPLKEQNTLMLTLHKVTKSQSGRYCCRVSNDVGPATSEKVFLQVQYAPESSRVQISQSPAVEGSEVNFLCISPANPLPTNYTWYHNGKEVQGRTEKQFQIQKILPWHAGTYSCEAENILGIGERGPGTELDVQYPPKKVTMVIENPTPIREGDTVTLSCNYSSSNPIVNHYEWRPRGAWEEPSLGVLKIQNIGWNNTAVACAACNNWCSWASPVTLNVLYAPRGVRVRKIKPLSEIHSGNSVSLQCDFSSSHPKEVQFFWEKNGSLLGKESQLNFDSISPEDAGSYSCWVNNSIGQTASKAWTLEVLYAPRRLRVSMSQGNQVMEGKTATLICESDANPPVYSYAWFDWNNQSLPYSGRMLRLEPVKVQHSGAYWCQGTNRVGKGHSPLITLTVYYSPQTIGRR


How the values were obtained:
[1] = target: T1, monkey CD22 protein (ACROBiosystems, …); assay: ELISA, coated monkey CD22 protein, antibody 0.001 nM
Method in brief: (§1)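 Plates were coated overnight at 4° C with 2 μg/mL CD22 protein in PBS and blocked with PBS + 2% BSA. Chimeric antibodies were incubated for 2 h at 37° C, then HRP-labelled secondary for 2 h at 37° C. Bound antibody was read by TMB colour development (30 min, RT) stopped with 1.0 N HCl.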

[2] = target: T2, CD22 on cynomolgus monkey peripheral blood B cells (cynomolgus monkey (Macaca fascicularis)); assay: FACS, cynomolgus PBMC, CD20+ B cells, antibody 100 nM
T2 construct: whole, on cells; also called cynomolgus monkey B cells
Method in brief: (§2)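 Readout: % chimeric-antibody-positive cells among CD20+ gated B cells, FACS. Cyno PBMC (Ficoll) in PBS/1% BSA; test Ab plus BV605 anti-CD20, 1 h RT; APC anti-hIgG Fc secondary, 30 min RT dark; washes between steps.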

[3] = target: T1, monkey CD22 protein (ACROBiosystems, …); assay: ELISA, coated monkey CD22 protein, antibody 0.1 nM
Method in brief: as §1

[4] = target: T1, monkey CD22 protein (ACROBiosystems, …); assay: ELISA, coated monkey CD22 protein, antibody 0.00001 nM
Method in brief: as §1

[5] = target: T1, monkey CD22 protein (ACROBiosystems, …); assay: ELISA, coated monkey CD22 protein, antibody 0.0001 nM
Method in brief: as §1

[6] = target: T1, monkey CD22 protein (ACROBiosystems, …); assay: ELISA, coated monkey CD22 protein, antibody 100 nM
Method in brief: as §1

[7] = target: T2, CD22 on cynomolgus monkey peripheral …; assay: FACS, cynomolgus PBMC, CD20+ B cells, antibody 1 nM
Method in brief: as §2

[8] = target: T1, monkey CD22 protein (ACROBiosystems, …); assay: ELISA, coated monkey CD22 protein, antibody 10 nM
Method in brief: as §1

[9] = target: T1, monkey CD22 protein (ACROBiosystems, …); assay: ELISA, coated monkey CD22 protein, antibody 0.01 nM
Method in brief: as §1

[10] = target: T2, CD22 on cynomolgus monkey peripheral …; assay: FACS, cynomolgus PBMC, CD20+ B cells, antibody 10 nM
Method in brief: as §2

| OD450 [1] | Proportion of chimeric antibody positive cells to B cells (%) [2] | OD450 [3] | OD450 [4] | OD450 [5] | OD450 [6] | Proportion of chimeric antibody positive cells to B cells (%) [7] | OD450 [8] | OD450 [9] | Proportion of chimeric antibody positive cells to B cells (%) [10] | Binder |
| --- | --- | --- | --- | --- | --- | --- | --- | --- | --- | --- |
| 0.07 OD450 | 34% | 0.06 OD450 | 0.06 OD450 | 0.06 OD450 | 0.11 OD450 | 20% | 0.08 OD450 | 0.06 OD450 | 20% | F2.70.2 (antibody, human IgG1, lambda, V domains shown, human-murine chimeric IgG1 lambda) VH: EVQLVESGGGLVKPGGSLKLSCAASGFTFSDYGMNWFRQAPEKGLEWVAYISRGSHTIYYADTVKGRFTISRDNAKNTLFLQMTSLRSNDTAMYYCVRMAGYYAMDYWGQGTSVTVSS VL: QLVLTQSSSASFSLGASAKLTCTLSSQHSSYIIEWYQQQPLKPPKYVMELKKDGSHSTGDGIPDRFSGSSSGADRYLSISNIQPEDEAIYICGVGDTIKEQFVYVFGGGTKVTVLG |
| 0.05 OD450 | 23% | 0.05 OD450 | 0.05 OD450 | 0.05 OD450 | 0.06 OD450 | 16% | 0.06 OD450 | 0.05 OD450 | 20% | F2.180.16 (antibody, human IgG1, lambda, V domains shown, human-murine chimeric IgG1 lambda) VH: EVKLVESGGGLVLPGGSLKISCAASGFTFSDYYMYWIRQTPDKRLEWVAYISNTGYSTFYPDSVKGRFTVSRDNAKNTLYLQMSRLQSEDTAMYYCARHGILYAMDYWGQGTSVTVSS VL: QPVLTQSSSASFSLGASAKLTCTLSSQYSTYTIGWYQQQPLKPPKYVMELKHDGSRHTGDGIPDRFSGSSSGADRYLSISNIQPEDEATYICGVGDTIKEQFMYVFGGGTKVTVLG |
| 0.12 OD450 | 71% | 1.25 OD450 | 0.06 OD450 | 0.06 OD450 | 1.18 OD450 | 19% | 1.12 OD450 | 0.38 OD450 | 43% | F2.173.9 (antibody, human IgG1, lambda, V domains shown, human-murine chimeric IgG1 lambda) VH: EVQLVESGGDLVKPGESLKLSCEASGFTFSNYAMSWVRQTPDRRLEWVATISSIGSFTYYSDSVKGRFTISRDNVKSTLHLQMNNLKSGDTAIYFCARLGVYFDSWGQGTTLTVSS VL: QLVLTQSSSASFSLGASAKLTCTLSSQHSTYTIEWYQQQPHKPPKFVMEIKKDGSHYTGDGIPDRFSGSSSGADRYLSISNIQPEDETIYICGVSDMIKDQFVYVFGGGTKVTVLG |
| 0.05 OD450 | 26% | 0.05 OD450 | 0.05 OD450 | 0.05 OD450 | 0.07 OD450 | 19% | 0.07 OD450 | 0.06 OD450 | 21% | F2.104.10 (antibody, human IgG1, lambda, V domains shown, human-murine chimeric IgG1 lambda) VH: EVQLVESGGGFVKPGGSLKLSCAASGFTFSDYGMNWFRQAPEKGLEWVAYISRGSHTIYYADTVKGRFTISRDNAENTLFLQMTSLRSNDTAMYYCVRMAGYYAMDYWGQGTSLTVSS VL: QLVLTQSSSASFSLGASAKLTCTLSSQHSSYIIEWYQQQPLKPPKYVMEVKKDGSHSTGDGIPDRFSGSSSGADRYLSISNIQSEDEAIYICGVGDTIKEQFVYVFGGGTKVTVLG |
| 0.06 OD450 | 64% | 0.34 OD450 | 0.05 OD450 | 0.05 OD450 | 0.72 OD450 | 27% | 0.56 OD450 | 0.13 OD450 | 56% | F2.121.9 (antibody, human IgG1, lambda, V domains shown, human-murine chimeric IgG1 lambda) VH: EVQLVESGGGLVKPGGSLKLSCAASGFTFSDYVMSWIRQTPEKRLEWVATISDAGSYTFYPDNLKGRFTISRDNAKNNLYLQMNHLTSEDTAFYYCAIIYFGNYGGYWGQGTLVTVSV VL: QAVVTQESALTTSPGGTVVLTCRSNTGAVTTSNYANWVQEKPDHLFTGLIGGTSNRAPGVPVRFSGSLIGDKAALTITGAQTEDDAMYFCALWYSTHWVFGGGTKLTVLG |
| 0.05 OD450 | 22% | 0.05 OD450 | 0.05 OD450 | 0.05 OD450 | 0.08 OD450 | 21% | 0.06 OD450 | 0.05 OD450 | 21% | F2.343.16 (antibody, human IgG1, lambda, V domains shown, human-murine chimeric IgG1 lambda; VL name legible) VH: QVQLKQSGPGLVQPSQSLSITCTVSGFSLTGYGVQWVRQSPGKGLEWLGVIWGGGGTDYNAAFISRLNIIKDNSKSQVFFKMNSLQADDTAIYYCARYSKYGHFDVWGTGTAVTVSS VL: QAVVTQESALTTSPGETVTLTCRSSTGAVTTSNYANWVQEKPDHLFTGLIGGTYNRVPGVPARFSGSLIGDKAALTITGAQTEDEAIYFCALWYSNHFWVFGGGTKLTVLG |
| 0.18 OD450 | 66% | 1.73 OD450 | 0.06 OD450 | 0.07 OD450 | 1.91 OD450 | 22% | 2 OD450 | 0.85 OD450 | 28% | F2.55.1 (antibody, human IgG1, lambda, V domains shown, human-murine chimeric IgG1 lambda; VL name legible) VH: QVTLKESGPGILQPSQTLSLTCSFSGFSLSTFPLGVGWIRQPSGKGLEWLAHVWWNDDDYYNPALKSRLTISKDTSNTRVFLSVASVDTAETATYYCARLNWDRWYFDVWGTGTTVTVSS VL: QLVLTQSSSASFSLGASAKLTCTLSSQHSAYTVEWYQQQPLKPPKYVMELKKDGSHSTGDGIPDRFSGSSSGADRYLSISNIQPEDEAIYICGVGDTVKEQFVFGGGTKVTVLG |
| 0.63 OD450 | 46% | 2.21 OD450 | 0.08 OD450 | 0.16 OD450 | 2.33 OD450 | 40% | 2.28 OD450 | 1.78 OD450 | 41% | F2.205.9 (antibody, human IgG1, lambda, V domains shown, human-murine chimeric IgG1 lambda; VL name legible) VH: QVTLKESGPGILQPSQTLSLTCSFSGFSLSTSGMGVGWIRQPSGKGLEWLAHIWWDDDEYYNPALKSRLTISKDTSKNQVFLKIANVDTADTATYYCARISIPYGYYDWFFDVWGTGTTVTVSA VL: QAVVTQESALTTSPGETVTLTCRSSTGAVTTRNYANWVQEKPDHLFTGLIGGTNNRAPGVPARFSGSLIGDKAALTITGAQTEDEAIYFCALWYSNHFIFGSGTKVTVLG |
| 0.27 OD450 | 60% | 1.6 OD450 | 0.07 OD450 | 0.1 OD450 | 2.77 OD450 | 38% | 1.89 OD450 | 0.94 OD450 | 48% | F2.151.13 (antibody, human IgG1, lambda, V domains shown, human-murine chimeric IgG1 lambda) VH: QVHLQQPGTELMKPGASVKLSCKATGYTFRDYWLEWVKQRPGHGLEWIGEILPGSGNAYYNEKFKGKATFTADTSSNTAYMQLSSLTTEDSAIYYCARVYSNWYFDAWGKGTTVTVSS VL: QAVVTQESALTTSPGETVTLTCRSSTGAVTTSNYANWVQEKPDHLFTGLIGGTNNQAPGVPARFSGSLIGDKAALTISGAQTEDEAIYFCALWFSNHWVFGGGTKLTVLG |
